The values that follow come from article PMC10397247.

Experiment [1] has as its target T1, 4H384-AA.
T1 chain: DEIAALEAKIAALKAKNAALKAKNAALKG
The experiment is described as follows: two-hybrid library CCmax.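 Further: natural log of median RNA to DNA barcode read ratio; higher means stronger binding.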 The note with it: mean of both orientations.

The target in experiment [2] is T2, 4H340-AA.
T2 chain: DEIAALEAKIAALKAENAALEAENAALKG
As to the kind of experiment: two-hybrid library CCmax.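 Further: natural log of median RNA to DNA barcode read ratio; higher means stronger binding.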 The note with it: mean of both orientations.

Experiment [3] concerns the target T3, 4H697-AA.
T3 chain: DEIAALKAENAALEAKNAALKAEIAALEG
The experiment is described as follows: two-hybrid library CCmax.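 Further: natural log of median RNA to DNA barcode read ratio; higher means stronger binding.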 The note with it: mean of both orientations.

Experiment [4] concerns the target T4, 4H3631-AA.
T4 chain: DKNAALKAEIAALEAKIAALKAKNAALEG
The experiment is described as follows: two-hybrid library CCmax.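 Further: natural log of median RNA to DNA barcode read ratio; higher means stronger binding.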 The following applies: mean of both orientations.

Experiment [5] has as its target T5, 4H3378-AA.
T5 chain: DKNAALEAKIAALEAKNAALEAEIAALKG
The experiment is described as follows: two-hybrid library CCmax. The note with it: mean of both orientations.

Experiment [6] has as its target T6, 4H32-AA.
T6 chain: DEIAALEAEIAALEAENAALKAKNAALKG
As to the kind of experiment: two-hybrid library CCmax. The following applies: mean of both orientations.

Experiment [7] deals with T7, 4H3606-AA.
T7 chain: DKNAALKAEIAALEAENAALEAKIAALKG
The experiment is described as follows: two-hybrid library CCmax. The following applies: mean of both orientations.

In experiment [8] the target is T8, 4H3588-AA.
T8 chain: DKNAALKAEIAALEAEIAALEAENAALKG
The experiment is described as follows: two-hybrid library CCmax. The following applies: mean of both orientations.

Experiment [9] concerns the target T9, 4H3697-AA.
T9 chain: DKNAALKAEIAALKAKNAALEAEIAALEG
As to the kind of experiment: two-hybrid library CCmax. The following applies: mean of both orientations.

In experiment [10] the target is T10, 4H3413-AA.
T10 chain: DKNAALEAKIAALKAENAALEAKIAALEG
The experiment is described as follows: two-hybrid library CCmax. The note with it: mean of both orientations.

Experiment [11] has as its target T11, 4H3718-AA.
T11 chain: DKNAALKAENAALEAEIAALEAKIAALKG
The experiment is described as follows: two-hybrid library CCmax. The note with it: mean of both orientations.

Experiment [12] concerns the target T12, 4H3865-AA.
T12 chain: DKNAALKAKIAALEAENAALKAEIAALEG
As to the kind of experiment: two-hybrid library CCmax. The following applies: mean of both orientations.

Experiment [13] has as its target T13, 4H3162-AA.
T13 chain: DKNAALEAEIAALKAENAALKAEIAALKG
As to the kind of experiment: two-hybrid library CCmax. The note with it: mean of both orientations.

Experiment [14] addresses T14, 4H3133-AA.
T14 chain: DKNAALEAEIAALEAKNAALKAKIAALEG
As to the kind of experiment: two-hybrid library CCmax.

The target in experiment [15] is T15, 4H982-AA.
T15 chain: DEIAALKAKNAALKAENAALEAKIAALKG
As to the kind of experiment: two-hybrid library CCmax. The note with it: mean of both orientations.

The target in experiment [16] is T16, APC9096-AA.
T16 chain: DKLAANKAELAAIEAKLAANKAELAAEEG
The experiment is described as follows: two-hybrid library CCmax. The note with it: mean of both orientations.

The target of experiment [17] is T17, APC7099-AA.
T17 chain: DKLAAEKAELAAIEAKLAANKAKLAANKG
The experiment is described as follows: two-hybrid library CCmax. The following applies: mean of both orientations.

The target of experiment [18] is T18, APC8191-AA.
T18 chain: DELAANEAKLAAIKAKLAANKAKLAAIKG
As to the kind of experiment: two-hybrid library CCmax. The note with it: mean of both orientations.

In experiment [19] the target is T19, APC8910-AA.
T19 chain: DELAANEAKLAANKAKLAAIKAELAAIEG
As to the kind of experiment: two-hybrid library CCmax. The note with it: mean of both orientations.

For experiment [20], the target named is T20, APC9319-AA.
T20 chain: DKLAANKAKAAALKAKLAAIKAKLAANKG
The experiment is described as follows: two-hybrid library CCmax. The following applies: mean of both orientations.

Experiment [21] deals with T21, APC6108-AA.
T21 chain: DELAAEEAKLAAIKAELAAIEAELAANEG
The experiment is described as follows: two-hybrid library CCmax. The following applies: mean of both orientations.

Experiment [22] concerns the target T22, APC5383-AA.
T22 chain: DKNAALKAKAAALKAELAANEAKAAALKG
The experiment is described as follows: two-hybrid library CCmax.

Experiment [23] addresses T23, 4H918-bA.
T23 chain: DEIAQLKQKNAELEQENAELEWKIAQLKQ
The experiment is described as follows: two-hybrid library CCNG1.

Experiment [24] addresses T24, 4H953-bA.
T24 chain: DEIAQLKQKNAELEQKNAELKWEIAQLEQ
The experiment is described as follows: two-hybrid library CCNG1.

The target in experiment [25] is T25, 4H967-bA.
T25 chain: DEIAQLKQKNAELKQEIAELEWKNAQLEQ
As to the kind of experiment: two-hybrid library CCNG1.

The target of experiment [26] is T26, 4H4001-bA.
T26 chain: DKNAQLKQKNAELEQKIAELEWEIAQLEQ
The experiment is described as follows: two-hybrid library CCNG1.

The target in experiment [27] is T27, 4H687-bA.
T27 chain: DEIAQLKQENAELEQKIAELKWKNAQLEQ
As to the kind of experiment: two-hybrid library CCNG1.

The target of experiment [28] is T28, 4H908-bA.
T28 chain: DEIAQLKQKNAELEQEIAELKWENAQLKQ
The experiment is described as follows: two-hybrid library CCNG1.

The target of experiment [29] is T29, 4H883-bA.
T29 chain: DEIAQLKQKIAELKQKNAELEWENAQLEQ
The experiment is described as follows: two-hybrid library CCNG1.

Experiment [30] addresses T30, 4H717-bA.
T30 chain: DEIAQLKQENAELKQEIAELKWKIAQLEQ
The experiment is described as follows: two-hybrid library CCNG1.

Experiment [31] deals with T31, 4H754-bA.
T31 chain: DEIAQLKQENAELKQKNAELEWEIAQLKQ
The experiment is described as follows: two-hybrid library CCNG1. The following applies: mean of both orientations.

Experiment [32] addresses T32, 4H454-bA.
T32 chain: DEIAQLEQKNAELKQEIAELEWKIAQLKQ
The experiment is described as follows: two-hybrid library CCNG1.

Experiment [33] has as its target T33, 4H3855-bA.
T33 chain: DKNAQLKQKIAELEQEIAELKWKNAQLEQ
The experiment is described as follows: two-hybrid library CCNG1.

In experiment [34] the target is T34, 4H607-bA.
T34 chain: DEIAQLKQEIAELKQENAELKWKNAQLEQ
As to the kind of experiment: two-hybrid library CCNG1.

In experiment [35] the target is T35, 4H797-bA.
T35 chain: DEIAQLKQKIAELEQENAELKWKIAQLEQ
As to the kind of experiment: two-hybrid library CCNG1.

Experiment [36] has as its target T36, 4H72-bA.
T36 chain: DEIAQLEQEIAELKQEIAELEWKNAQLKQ
The experiment is described as follows: two-hybrid library CCNG1.

Experiment [37] deals with T37, 4H568-bA.
T37 chain: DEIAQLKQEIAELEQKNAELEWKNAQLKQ
As to the kind of experiment: two-hybrid library CCNG1.

The target of experiment [38] is T38, 4H452-AA.
T38 chain: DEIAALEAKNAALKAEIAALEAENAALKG
The experiment is described as follows: two-hybrid library CCmax. The following applies: mean of both orientations.

For experiment [39], the target named is GCN2_T. As to the kind of experiment: two-hybrid library CCmax. The note with it: mean of both orientations.
In experiment [40] the target is 4H_GCN4. The experiment is described as follows: two-hybrid library CCmax.
Chain of 4H_GCN4 (chain, as listed by the source): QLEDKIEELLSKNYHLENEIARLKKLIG
Experiment [41] addresses T39, 4H406-AA.
T39 chain: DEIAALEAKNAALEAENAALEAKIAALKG
The experiment is described as follows: two-hybrid library CCmax. The following applies: mean of both orientations.

For experiment [42], the target named is T40, 4H3073-AA.
T40 chain: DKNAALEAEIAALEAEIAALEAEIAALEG
As to the kind of experiment: two-hybrid library CCmax. The following applies: mean of both orientations.

The target in experiment [43] is T41, 4H_APH.
T41 chain: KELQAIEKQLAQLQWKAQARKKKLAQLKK
The experiment is described as follows: two-hybrid library CCmax. The following applies: mean of both orientations.

In experiment [44] the target is T42, 4H56-AA.
T42 chain: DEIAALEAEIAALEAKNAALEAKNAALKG
The experiment is described as follows: two-hybrid library CCmax. The note with it: mean of both orientations.

For experiment [45], the target named is T43, 4H_BCR.
T43 chain: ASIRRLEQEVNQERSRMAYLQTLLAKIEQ
As to the kind of experiment: two-hybrid library CCmax. The following applies: mean of both orientations.

Experiment [46] concerns the target T44, 4H3015-AA.
T44 chain: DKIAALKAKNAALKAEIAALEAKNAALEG
The experiment is described as follows: two-hybrid library CCmax.

Experiment [47] has as its target T45, 4H347-AA.
T45 chain: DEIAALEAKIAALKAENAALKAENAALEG
As to the kind of experiment: two-hybrid library CCmax. The note with it: mean of both orientations.

Experiment [48] concerns the target T46, 4H3438-AA.
T46 chain: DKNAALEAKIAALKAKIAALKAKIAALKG
The experiment is described as follows: two-hybrid library CCmax. The following applies: mean of both orientations.

B1: 4H3133-AA (peptide)
chain: DKNAALEAEIAALEAKNAALKAKIAALEG
Regarding B1, the interaction score was -1.58 in experiment [1]; -0.539 in [2]; -1.6 in [3]; -0.654 in [4]; -1.1 in experiment [5]; -1.83 in experiment [6]. Besides, the interaction score is 1.29 in experiment [7]; -1.47 in experiment [8]; -0.244 in experiment [9]; 1.97 in [10]; -0.85 in experiment [11]; 0.466 in experiment [12]. For the same molecule, the interaction score was -1.24 in experiment [13], -0.726 in [14] and 0.112 in [15].

B2: APC5383-AA (peptide)
chain: DKNAALKAKAAALKAELAANEAKAAALKG
With B2, the interaction score was -1.73 in experiment [16]; -1.61 in experiment [17]; -2.31 in [18]; -1.6 in [19]; -2.03 in experiment [20]; -1.32 in [21]. The molecule also came in with an interaction score in experiment [22] of -1.83.

B3: 4H3855-bA (peptide)
chain: DKNAQLKQKIAELEQEIAELKWKNAQLEQ
Consider B3, for which the interaction score in [23] is -1.43; in experiment [24] it was -1.69; in experiment [25] it was -0.636; in [26] it was 0.153; in experiment [27] it was -0.551; in experiment [28], -0.51. The interaction score was -1.04 in [29]; -0.336 in experiment [30]; -1.21 in experiment [31]; -0.709 in experiment [32]; 0.372 in experiment [33]; -0.96 in [34]. Moreover, the interaction score in experiment [35] was -0.875; in [36], 0.932; in [37], -0.231.

B4: 4H3015-AA (peptide)
chain: DKIAALKAKNAALKAEIAALEAKNAALEG
Turning to B4, the interaction score in experiment [38] is -1.36; in experiment [39], -1.44; in experiment [40], -1.28; in experiment [41], -0.891; in experiment [42], 0.065; in experiment [43], -2.92. Further, the interaction score in [44] was -1.59; in [45] it was -1.81; in experiment [46], -1.16; in experiment [47], -1.96; in [48] it was -1.63.
